Source: the DeepSol protein solubility set

Experiment: soluble on expression in E. coli; label from the status in PepcDB or PDB records

Row | Sequence | soluble on expression in E. coli
1 | MRKSVFVLVFLMASVLFSVELKICYLNEDLLPIVKVTEGRDNPVLEIFEALSSPPEGLKTFVPEGVLRAYFFVGDYLILDFYGEKLKGMNFDSERYFLHQVLYTTFLNVKGVNNVYIIIDGKKRDVLAKHVDIRFSFPREVWEKWPIRLEHHHHHH | not soluble
2 | MRKVTAAVMASTLAFSFLSHAAEVVTSDNWHPGDGATQRSAQNHMFDGISLTEHQRQQMRDLMQQARHEQPPVNVSEMETMHRLVTAEKFDESAVRAQAEKMAQEQVARQVEMARVRNQMYRLLTPEQQAVLNEKHQQRMEQLRDVAQWQKSSSLKLLSSSNSRSQLEHHHHHH | not soluble
3 | MRKYEQKQLRNHDILTQHYEEVYRQLPEFKSLDDSISILSVQYGKRLLNGDQKAISSLKEELAILRASKQELLRSSGFPADYLEPVYDCPNCKDTGYIGNQKCHCFKKAIIDLLYEQSNLKEILKKENFSNFALDYYSTNFIDPKTGRSSRQVIEDALRICRNFVTSFGTDFQNLFLYGDVGVGKTFLSNCIAKELMDKEYSVLYFSASKFFSSLAKHAFDKQDVDAQNMFELIYNCDCLIIDDLGTEYTNNFIASQFFTCINERLLNSRSTIISTNLSLDTLADLYTERSFSRITSNYIMLKLIGDDIRIKKKLKNREEN | not soluble
4 | MRLAVLIDADNAKADAISDLLAEVSKFGVATVKRAYGDWTTTNLQGWKKQLHKYAIQPMQQFSYTRGKNSTDASMIIDGMDLLYTGNFDGFCIVSSDCDFTRLATRFREAGLSVYGFGEKKTPEPFVAACDRFIFTEILGKGETQEKPAATGKADESAASKELLKLLRKAVAAVSGEDGWASLSNLGSHISKIRPSFDSRNYGYSKLSTLVKNLDIFETRMVPSADKLHTDVFLRLKDGKLEHHHHHH | not soluble
5 | MRLDLENLVETPSNEIAGFYEGLVEALPSLEGHYCSPGCRGGFLMRVREGTMMGHIVEHVALELQELAGMHVGFGRTRETATPGVYQVVIEYINEEAGRYAGRAAVRLCQSIVDRGRYPKAELEQDIQDLKDFSREASLGPSTEAIIKEAEKRGIPWMPLAARFLIQLGYGVNQKRMQATMTDNTGILGVELACDKEATKRILAANGVPVPRGTVINFLDDLEESIEYVGGYPIVIKPLDGNHGRGITIDIRSWDEAEAAYEAARQVSRSIIVERYYVGRDHRVLVVDGKVVAVAERVPAHVIGNGRSSIAELITETNQDPNRGEGHDNVLTKIELDRTSYQLLERQGYTLNSVPPKGTICYLRATANLSTGGSAVDRTDEIHPENVWLAQRVVRIIGLDIAGLDIVTTDISRPLRDVDGVIVEVNAAPGFRMHVAPSQGIPRNVAGAVMDMLFPNEKPSRIPILTVTGTNGKTTTTRLLAHIYRQTKKVVGYTTTDGTYIGDYLVEAGDNTGPQSAHVILQDPTVEVAVLESARGGILRSGLGFESANVGVVLNVAADHLGIGDIDTIEQLANLKSVVAEAVFPDGYAVLNADDHRVAAMSEKTKANIAYFTMNPDSDLVRKHIQKGGVAAVYENGYLSIVKGDWTHRIERAENIPLTMGGKAPFMIANALAASLAAFVQNVTIEQIRPGLRTFRASVSQTPGRMNLFNLGKYHALVDYAHNPASYEALGSFVRNWTTGQRIGVIGGPGDRRDEDFVTLGKLSADIFDYILVKEDDDTRGRLRGSASDLIIQGITQVKPNSRFESILDETQAINKALDMAPDGSLVVILPESVNRAIKLIKVRGVQEEIQPQNSTTTINDSQNGVAPSSVVNTLL | not soluble
6 | MRLDVEQTSKLDRVRADYNVHYWSQGFYGIDDQGEMYVSPRSDNAHQIQLSKIVKQLEERQLNVPVLVRFPQILHQRVHSICDAFNQAIEEYQYPNKYLLVYPIKVNQQREVVDEILASQAQLETKQLGLEAGSKPELLAVLAMAQHASSVIVCNGYKDREYIRLALIGEKLGHKVFIVLEKMSELDLVLREAKSLGVTPRLGIRIRLASQGAGKWQASGGEKSKFGLSASQVLNVISRLKKENQLDTLQLVHFHLGSQMANIRDVRNGVNESARFYCELRTLGANITYFDVGGGLAIDYDGTRSQSSNSMNYGLVEYARNIVNTVGDVCKDYKQPMPVIISESGRSLTAHHAVLISNVIGTETYKPETVTEPEEDFPLLLNNMWRSWLNLHNGTDARALIEIYNDTQSDLAEVHSQFATGVLTLEHRAWAEQTSLRIYYELNRLMSTKNRFHRPILDELSERLADKFFVNFSLFQSLPDSWGIDQVFPVLPLSGLQNAADRRAVMLDITCDSDGAIDAYVDGQGIESTLPVPAWNEDEPYLMGFFLVGAYQEILGDMHNLFGDTHSVVVNVGDQGEINIDFINEGDTVEDMMRYVHIDVDQIRKNYHSLVSQRVDQEEQQQILAELEQGLSGYTYLEDFLEHHHHHH | soluble
7 | MRLEFSIYRYNPDVDDAPRMQDYTLEADEGRDMMLLDALIQLKEKDPSLSFRRSCREGVCGSDGLNMNGKNGLACITPISALNQPGKKIVIRPLPGLPVIRDLVVDMGQFYAQYEKIKPYLLNNGQNPPAREHLQMPEQREKLDGLYECILCACCSTSCPSFWWNPDKFIGPAGLLAAYRFLIDSRDTETDSRLDGLSDAFSVFRCHSIMNCVSVCPKGLNPTRAIGHIKSMLLQRNA | soluble
8 | MRLLPLVAAATAAFLVVACSSPTPPRGVTVVNNFDAKRYLGTWYEIARFDHRFERGLEKVTATYSLRDDGGLNVINKGYNPDRGMWQQSEGKAYFTGAPTRAALKVSFFGPFYGGYNVIALDREYRHALVCGPDRDYLWILSRTPTISDEVKQEMLAVATREGFDVSKFIWVQQPGS | soluble
9 | MRLLVAFAVIYFISISPVCAENTASTINIPTPAIESPLASKSLLLDISLIGQEKLVTVGQHGHILLSNDGKKWQQANVPVQVTLTNVFFLNEQLGWAVGHDATILHSQDGGLNWQVQQYLPLLEKPLFDIYFKNPQQGIAVGAYGQVFRTNDGGSTWQNEFHQEILLADDVEYLNELKAEDEAAYLDEITFILPHFNRLVQDGGSLFLLGETGLLAKSDDFGLTWQQFDNFYQGSFFSLARTKTGNVLVAGLRGHVFRSLNHGSQWDEVPTNTTALLNDIVFANDERIFILGNNGMLLISTDDGESFSKIPQQDGKTLIAGVWFKGQLIAVSDVGIKVVDLSQELEHHHHHH | not soluble
10 | MRLLVIIILVAFFLCTTAELMEKRSSMGGSAFGGIDRIPLSYLRKYYRQKTMKRDDNELLDFSPQNSQLGYRSISFWPLY | not soluble
11 | MRLLVQNVHKRFGKLEALKGVSLELGAGEILGLLGPNGAGKTTLIKVVLGLLLPDGGEVVLEEGGARRRPQGHEFGVLLEGSRNLYVNLSLLVNALYFGGIRGLPPKEVRPRFEAWLERFGLKDRLHAPLASLSRGMQQKAALALALALKPRFLLLDEPTLGLDPVSRREFEGILLELKKEGWGILLTSHDLEVVERVSDRVAFLHRGEVRRQGPTRVLLREWAGEGYRVRLAEPKAEALLQALGPGWSAEGPEVLFFLGPWEALREALGAFPVEVLEVSRGTPSLEALFLHLFGEARPSPSA | soluble
12 | MRLMKSYKNLKEEVWDTNRCSGCGACVAVCPVNNLYFREESPVKFECDECSCIIVPADIVEHPISAEFCKTVVYDVPCGACYDACPRIKKSAIPKPKGLGNILKAVRAKASIEIKNAQNGGVVTAILANAFDEGLIDGAIVMMDDKWTLEPESYLALSKEDVLKSAGSKYLWKGPILKALKTAVMEKKLKKLAVVGTPCVINAIYQILSSDNDLLKPFREAIRLKIALFCFETYDYSKMIKKLNEDGIEPWEVKKMDIESGKLKITLINGNTVEYKLKDVESAMRNGCKVCGDFTGLTSDISVGNVGTEKGYSTVLIRNKWGEGFFKRAVYNGYITYDENVDLEAVEKLVELKKKRVKKDLEHHHHHH | soluble
13 | MRLNHKQGTAGEDAALAFLQSQGCTLLARNWHCAYGEIDLIVKNGGMILFVEVKYRKNQRFGGAAYSISPSKLLKLQRSVEYYLQQNRLTNVPCRLDAVLIEGNRPPEWIKNITG | soluble
14 | MRLRHKPYAMDRINEYSHIVIGNPEERAGSWKEVFGNEQPIHIEVGTGRGRFMYDMAKANPHINYIGIEKFTSVVVDALDKLIEEELPNLKLINKDAEDLTVFFAKGEIDRVYLNFSDPWPKKRHTKRRLTYKTFLRNYEEVLVEGGEIHFKTDNQGLFEYSLMSMAEYGMLLTYLSLDLHNSDFEGNIMTEYEEKFSSKGHRIYRVEAKYRTEPMQ | not soluble
